Source: PMC8405949 (2021)
Blank lines part the entries; values can stand above or below the binder they belong to.

Tests used:
Assay in all cases: SPR
[1] = molecular target: XRCC1 cancer-associated variant R194W (human, UniProt P18887 1-633, R194W)
[2] = molecular target: XRCC1 cancer-associated variant Y576S (human, UniProt P18887 1-633, Y576S)
[3] = molecular target: XRCC1 cancer-associated variant P161L (human, UniProt P18887 1-633, P161L)
[4] = molecular target: XRCC1 cancer-associated variant R280H (human, UniProt P18887 1-633, R280H)
[5] = molecular target: XRCC1 cerebellar ataxia-related K431N mutant (human, UniProt P18887 1-633, K431N)

Kd [1]: 686 nM
Kd [2]: 422 nM
Kd [3]: 320 nM
Kd [4]: 569 nM
B1: Aprataxin (APTX), human wild-type full-length (enzyme)
chain: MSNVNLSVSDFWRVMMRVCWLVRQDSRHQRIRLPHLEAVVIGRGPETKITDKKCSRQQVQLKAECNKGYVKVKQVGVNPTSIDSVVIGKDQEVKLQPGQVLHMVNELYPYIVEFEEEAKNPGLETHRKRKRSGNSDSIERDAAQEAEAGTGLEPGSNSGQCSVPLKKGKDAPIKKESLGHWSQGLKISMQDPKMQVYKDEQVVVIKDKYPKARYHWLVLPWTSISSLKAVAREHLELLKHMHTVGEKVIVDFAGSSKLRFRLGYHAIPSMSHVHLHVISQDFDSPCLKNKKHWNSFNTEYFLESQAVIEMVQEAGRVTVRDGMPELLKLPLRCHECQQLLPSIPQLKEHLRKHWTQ
Kd [5]: 301 nM

Kd [1]: 44.9 nM
Kd [2]: 50.4 nM
Kd [3]: 37.3 nM
Kd [4]: 43.6 nM
B2: DNA ligase IIIα, human wild-type full-length (1–922 aa) (enzyme)
chain: MAEQRFCVDYAKRGTAGCKKCKEKIVKGVCRIGKVVPNPFSESGGDMKEWYHIKCMFEKLERARATTKKIEDLTELEGWEELEDNEKEQITQHIADLSSKAAGTPKKKAVVQAKLTTTGQVTSPVKGASFVTSTNPRKFSGFSAKPNNSGEAPSSPTPKRSLSSSKCDPRHKDCLLREFRKLCAMVADNPSYNTKTQIIQDFLRKGSAGDGFHGDVYLTVKLLLPGVIKTVYNLNDKQIVKLFSRIFNCNPDDMARDLEQGDVSETIRVFFEQSKSFPPAAKSLLTIQEVDEFLLRLSKLTKEDEQQQALQDIASRCTANDLKCIIRLIKHDLKMNSGAKHVLDALDPNAYEAFKASRNLQDVVERVLHNAQEVEKEPGQRRALSVQASLMTPVQPMLAEACKSVEYAMKKCPNGMFSEIKYDGERVQVHKNGDHFSYFSRSLKPVLPHKVAHFKDYIPQAFPGGHSMILDSEVLLIDNKTGKPLPFGTLGVHKKAAFQDANVCLFVFDCIYFNDVSLMDRPLCERRKFLHDNMVEIPNRIMFSEMKRVTKALDLADMITRVIQEGLEGLVLKDVKGTYEPGKRHWLKVKKDYLNEGAMADTADLVVLGAFYGQGSKGGMMSIFLMGCYDPGSQKWCTVTKCAGGHDDATLARLQNELDMVKISKDPSKIPSWLKVNKIYYPDFIVPDPKKAAVWEITGAEFSKSEAHTADGISIRFPRCTRIRDDKDWKSATNLPQLKELYQLSKEKADFTVVAGDEGSSTTGGSSEENKGPSGSAVSRKAPSKPSASTKKAEGKLSNSNSKDGNMQTAKPSAMKVGEKLATKSSPVKVGEKRKAADETLCQTKVLLDIFTGVRLYLPPSTPDFSRLRRYFVAFDGDLVQEFDMTSATHVLGSRDKNPAAQQVSPEWIWACIRKRRLVAPC
